# Measurements: article PMC5573662 (Bioorganic & medicinal chemistry, 2017)
# Square brackets hold non-standard residues; d marks the D form. Ends that are not written are not given here. His(π-(CH2)8Ph) = N[C@@H](Cc1cncn1CCCCCCCCc1ccccc1)C(=O)O; pT = C[C@@H](OP(=O)(O)O)[C@H](N)C(=O)O
# Biological target: full-length polo-like kinase 1 (Plk1) (UniProt P53350 1-603)
# Assay: ELISA
# full-length polo-like kinase 1 (Plk1), sequence (P53350 whole entry): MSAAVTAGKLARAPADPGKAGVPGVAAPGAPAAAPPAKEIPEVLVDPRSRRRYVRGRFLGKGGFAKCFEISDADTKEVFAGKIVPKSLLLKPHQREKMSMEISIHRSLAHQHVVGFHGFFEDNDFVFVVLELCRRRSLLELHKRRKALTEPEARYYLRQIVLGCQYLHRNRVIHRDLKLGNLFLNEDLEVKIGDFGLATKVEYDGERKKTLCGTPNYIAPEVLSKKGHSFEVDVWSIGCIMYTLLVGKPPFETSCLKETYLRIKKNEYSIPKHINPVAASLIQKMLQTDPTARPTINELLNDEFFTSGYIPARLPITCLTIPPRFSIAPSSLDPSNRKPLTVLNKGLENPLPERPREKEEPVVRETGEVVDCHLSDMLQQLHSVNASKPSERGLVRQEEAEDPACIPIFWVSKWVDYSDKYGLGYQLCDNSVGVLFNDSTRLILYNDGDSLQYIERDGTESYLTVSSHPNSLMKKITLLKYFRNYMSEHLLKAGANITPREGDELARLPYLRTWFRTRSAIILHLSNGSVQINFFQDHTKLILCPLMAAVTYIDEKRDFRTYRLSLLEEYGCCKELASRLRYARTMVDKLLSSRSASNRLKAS
binder,measurement,value
PL[His(π-(CH2)8Ph)]S[pT] [PLH*SpT (2a)],IC50,0.181 µM
